15 molecules from PMC314469, “Protein Interaction Networks by Proteome Peptide Scanning” (PLoS Biology, 2004) can be followed below.

Sequences and labels used below:
T1: amphyphisin SH3 (AMPH_HUMAN), P49418
T1 chain: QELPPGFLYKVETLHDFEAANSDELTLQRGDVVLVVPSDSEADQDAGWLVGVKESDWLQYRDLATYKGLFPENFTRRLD

The target of the first assay is endophilin SH3 (SH3G2_HUMAN), Q99962. The assay can be described thus: SPOT array.
On to PAPRIKRPRLQVVK [Q9BR83 136-149], for which the normalised SPOT signal, Boehringer light units (BLU); mean over the file's lines of this peptide amounted to 27.2.
Same read-out and setting: the result for PAAPPKKPPRPGAP [Q05397 868-882] reads 792.
On the same count and under the same terms, next, PAARPRRPPTTLPP [Q9HCM5 24-37]: 7270; ARNQLRRPQYRPQY [P16989 219-232]: 27.2.
Turning to PAAAPRRPFSWEDV [O95696 687-700], the normalised SPOT signal, Boehringer light units (BLU); mean over the file's lines of this peptide is 50.4.
Same read-out and setting: next, PALSPTRPPKKPLD [O60593 320-334]: 1720.
The same measure, in the same setting: the result for PAHPFRRPKLSGRS [Q9ULT6 397-410] reads 64.8.
Still for that read-out and setting: next, PAAPPKRPAVASAR [P27816 749-762]: 2200; PAASPRRPAPRTGP [Q96S08 21-34]: 48.9; PAALLYRPVRQYVY [Q9NZB2 597-610]: 430.
Molecule PAPGLRRPLSPPAA [Q9UK39 24-37] returned a normalised SPOT signal, Boehringer light units (BLU); mean over the file's lines of this peptide of 104.
With PAAPPRRPPQSASS [Q02080 268-282], the normalised SPOT signal, Boehringer light units (BLU); mean over the file's lines of this peptide came to 1450.
Same read-out and setting: the result for PAGELSRPKKDMSD [P78325 461-474] reads 196; that for PAALLRRPGLGRLV [P30049 3-16], 81.5; that for PAPPPVKPPPSPVN [Q8TF74 224-238], 182.

In the next assay the target is T1, amphyphisin SH3 (AMPH_HUMAN), P49418. Description: SPOT array.
Take PAPRIKRPRLQVVK [Q9BR83 136-149]: the normalised SPOT signal, Boehringer light units (BLU); mean over the file's lines of this peptide turned out to be 70.5.
For PAAPPKKPPRPGAP [Q05397 868-882], the normalised SPOT signal, Boehringer light units (BLU); mean over the file's lines of this peptide was 2460.
On the same count and under the same terms, the result for PAARPRRPPTTLPP [Q9HCM5 24-37] reads 109; that for ARNQLRRPQYRPQY [P16989 219-232], 13; that for PAAAPRRPFSWEDV [O95696 687-700], 28.
With PALSPTRPPKKPLD [O60593 320-334], the normalised SPOT signal, Boehringer light units (BLU); mean over the file's lines of this peptide was 599.
For the molecule PAHPFRRPKLSGRS [Q9ULT6 397-410], the normalised SPOT signal, Boehringer light units (BLU); mean over the file's lines of this peptide turned out to be 49.5.
On the same count and under the same terms, next, PAAPPKRPAVASAR [P27816 749-762]: 64.4; PAASPRRPAPRTGP [Q96S08 21-34]: 21.1; PAALLYRPVRQYVY [Q9NZB2 597-610]: 379.
Same read-out and setting: the result for PAPGLRRPLSPPAA [Q9UK39 24-37] reads 57.1.
In turn, PAAPPRRPPQSASS [Q02080 268-282] had a normalised SPOT signal, Boehringer light units (BLU); mean over the file's lines of this peptide of 3320.
As to PAGELSRPKKDMSD [P78325 461-474], the normalised SPOT signal, Boehringer light units (BLU); mean over the file's lines of this peptide was 105.
As to PAALLRRPGLGRLV [P30049 3-16], the normalised SPOT signal, Boehringer light units (BLU); mean over the file's lines of this peptide worked out at 4.9.
Molecule PAPPPVKPPPSPVN [Q8TF74 224-238] registered a normalised SPOT signal, Boehringer light units (BLU); mean over the file's lines of this peptide of 43.7.
